Measured values as given in US20130123349A1.

Columns and labels:
[1] = biological target: soluble collagen type I (pepsin-digested, non-fibrillar, triple helical; BD Biosciences) (human) (UniProt P02452); assay: SPR, saliva injected over immobilized collagen type I for 120 sec at 20 µl/min
[2] = biological target: soluble collagen type III (pepsin-digested, non-fibrillar; BD Biosciences) (human) (UniProt P02461); assay: SPR, saliva injected over immobilized collagen type III for 120 sec at 20 µl/min
[3] = biological target: collagen-related peptide (GPO)10, GCO-(GPO)10-GCOG-NH2, cross-linked; assay: SPR, Aegyptin over immobilized cross-linked (GPO)10 peptide, two-state model
[4] = biological target: collagen-related peptide (GPO)10, GCO-(GPO)10-GCOG-NH2, cross-linked; assay: SPR, Aegyptin over immobilized cross-linked (GPO)10 peptide, two-state model; Ka1
[5] = biological target: collagen-related peptide (GPO)10, GCO-(GPO)10-GCOG-NH2, cross-linked; assay: SPR, Aegyptin over immobilized cross-linked (GPO)10 peptide, two-state model; Kd1
[6] = biological target: collagen-related peptide (GPO)10, GCO-(GPO)10-GCOG-NH2, cross-linked; assay: SPR, Aegyptin over immobilized cross-linked (GPO)10, two-state model (text value; Table 4 prints 5.101 µM)

Sequence of soluble collagen type I (pepsin-digested, non-fibrillar, triple helical; BD Biosciences) (human) (P02452 179-1192 limits assumed, chain 1 of 2): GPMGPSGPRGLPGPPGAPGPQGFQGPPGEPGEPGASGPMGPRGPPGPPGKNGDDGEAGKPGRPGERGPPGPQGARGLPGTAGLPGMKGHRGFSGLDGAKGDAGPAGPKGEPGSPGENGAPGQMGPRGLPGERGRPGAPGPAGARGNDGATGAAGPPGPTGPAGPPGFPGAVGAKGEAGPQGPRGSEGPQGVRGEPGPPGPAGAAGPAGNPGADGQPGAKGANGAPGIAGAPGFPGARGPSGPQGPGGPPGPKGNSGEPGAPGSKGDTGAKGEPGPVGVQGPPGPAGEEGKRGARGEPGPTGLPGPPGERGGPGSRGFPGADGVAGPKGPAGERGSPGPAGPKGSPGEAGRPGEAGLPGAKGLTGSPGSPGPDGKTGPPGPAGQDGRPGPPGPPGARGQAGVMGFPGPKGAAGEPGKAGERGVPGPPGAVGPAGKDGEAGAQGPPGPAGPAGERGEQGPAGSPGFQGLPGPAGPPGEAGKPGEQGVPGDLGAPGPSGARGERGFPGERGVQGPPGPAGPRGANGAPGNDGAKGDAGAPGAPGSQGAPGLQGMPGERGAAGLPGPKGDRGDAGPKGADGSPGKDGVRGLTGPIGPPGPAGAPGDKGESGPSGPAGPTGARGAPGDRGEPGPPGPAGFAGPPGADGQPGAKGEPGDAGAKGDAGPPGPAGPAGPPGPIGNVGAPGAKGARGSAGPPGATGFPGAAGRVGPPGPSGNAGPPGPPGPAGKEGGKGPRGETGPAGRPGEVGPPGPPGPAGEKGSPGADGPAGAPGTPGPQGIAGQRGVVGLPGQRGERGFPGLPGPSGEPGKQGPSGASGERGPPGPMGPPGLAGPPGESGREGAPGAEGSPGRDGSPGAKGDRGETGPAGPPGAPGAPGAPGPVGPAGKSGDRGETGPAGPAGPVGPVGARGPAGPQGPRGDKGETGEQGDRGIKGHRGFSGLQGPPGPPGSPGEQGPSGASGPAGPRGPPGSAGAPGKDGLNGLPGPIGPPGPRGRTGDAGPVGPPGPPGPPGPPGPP
Sequence of soluble collagen type I (pepsin-digested, non-fibrillar, triple helical; BD Biosciences) (human) (P08123 91-1104 limits assumed, chain 2 of 2, further chain): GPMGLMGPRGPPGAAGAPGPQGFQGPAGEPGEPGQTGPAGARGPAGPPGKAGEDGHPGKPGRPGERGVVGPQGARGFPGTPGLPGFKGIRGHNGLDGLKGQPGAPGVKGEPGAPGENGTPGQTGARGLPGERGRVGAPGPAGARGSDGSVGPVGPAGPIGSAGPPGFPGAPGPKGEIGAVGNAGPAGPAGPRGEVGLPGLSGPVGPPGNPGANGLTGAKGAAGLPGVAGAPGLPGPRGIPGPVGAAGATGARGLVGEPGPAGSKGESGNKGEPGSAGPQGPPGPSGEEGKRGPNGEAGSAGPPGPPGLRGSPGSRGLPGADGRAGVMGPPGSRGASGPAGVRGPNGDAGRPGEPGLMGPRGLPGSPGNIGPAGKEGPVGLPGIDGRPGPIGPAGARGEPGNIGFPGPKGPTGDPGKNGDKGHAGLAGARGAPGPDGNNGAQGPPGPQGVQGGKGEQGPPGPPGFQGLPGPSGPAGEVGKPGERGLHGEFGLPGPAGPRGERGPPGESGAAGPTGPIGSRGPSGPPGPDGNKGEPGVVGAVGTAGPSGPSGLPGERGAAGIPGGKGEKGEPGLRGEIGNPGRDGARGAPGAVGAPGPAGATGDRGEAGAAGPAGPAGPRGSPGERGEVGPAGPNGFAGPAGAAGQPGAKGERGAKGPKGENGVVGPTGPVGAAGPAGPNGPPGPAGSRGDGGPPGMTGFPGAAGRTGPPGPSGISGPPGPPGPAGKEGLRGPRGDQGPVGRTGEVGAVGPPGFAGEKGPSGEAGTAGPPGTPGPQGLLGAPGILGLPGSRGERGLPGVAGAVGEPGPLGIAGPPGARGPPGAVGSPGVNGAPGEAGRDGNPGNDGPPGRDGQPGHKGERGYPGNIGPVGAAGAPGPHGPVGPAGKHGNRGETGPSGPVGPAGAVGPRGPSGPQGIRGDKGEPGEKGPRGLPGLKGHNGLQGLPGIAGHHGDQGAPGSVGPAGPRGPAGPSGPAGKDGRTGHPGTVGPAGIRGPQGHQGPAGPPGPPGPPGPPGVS
Sequence of soluble collagen type III (pepsin-digested, non-fibrillar; BD Biosciences) (human) (P02461 168-1196): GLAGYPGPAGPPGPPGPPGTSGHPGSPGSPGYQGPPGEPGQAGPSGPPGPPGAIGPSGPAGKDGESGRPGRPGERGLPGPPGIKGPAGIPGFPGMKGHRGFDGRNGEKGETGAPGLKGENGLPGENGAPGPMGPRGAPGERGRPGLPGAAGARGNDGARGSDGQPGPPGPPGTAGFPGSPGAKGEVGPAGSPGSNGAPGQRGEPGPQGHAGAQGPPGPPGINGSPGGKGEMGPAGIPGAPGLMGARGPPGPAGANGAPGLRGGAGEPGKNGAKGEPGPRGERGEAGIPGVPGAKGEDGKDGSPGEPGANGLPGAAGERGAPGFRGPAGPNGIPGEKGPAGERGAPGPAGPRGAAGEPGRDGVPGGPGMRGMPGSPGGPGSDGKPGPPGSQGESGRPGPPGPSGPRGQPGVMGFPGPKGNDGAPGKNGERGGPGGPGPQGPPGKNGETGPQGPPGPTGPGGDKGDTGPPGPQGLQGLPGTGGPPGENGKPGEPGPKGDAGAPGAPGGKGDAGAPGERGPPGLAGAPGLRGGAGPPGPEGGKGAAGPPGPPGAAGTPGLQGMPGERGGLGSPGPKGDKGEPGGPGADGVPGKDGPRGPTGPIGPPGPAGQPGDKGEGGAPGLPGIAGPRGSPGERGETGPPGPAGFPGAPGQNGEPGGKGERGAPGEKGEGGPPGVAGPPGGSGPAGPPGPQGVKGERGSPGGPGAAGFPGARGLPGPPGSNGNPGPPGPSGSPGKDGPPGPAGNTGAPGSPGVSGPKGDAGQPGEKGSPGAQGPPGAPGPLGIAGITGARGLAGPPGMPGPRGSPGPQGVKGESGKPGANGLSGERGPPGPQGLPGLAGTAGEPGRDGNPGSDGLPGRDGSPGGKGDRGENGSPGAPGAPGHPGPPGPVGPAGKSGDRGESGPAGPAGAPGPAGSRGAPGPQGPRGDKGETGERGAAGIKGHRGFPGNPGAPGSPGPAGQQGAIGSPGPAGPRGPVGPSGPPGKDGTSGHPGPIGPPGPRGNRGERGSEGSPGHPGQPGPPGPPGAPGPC

Ae. aegypti saliva (0.07 µg/ml)
Response (RU) [1]: 556 RU | Response (RU) [2]: 348 RU

recombinant Aegyptin (from UniProt O01949 20-273)
Kd [3]: 5.1 µM | Kd2 (two-state model) [3]: 0.0289 s⁻¹ | second Ka of the two-state model [3]: 0.00402 M⁻¹ s⁻¹ | kon [4]: 206000 M⁻¹ s⁻¹ | koff [5]: 1.19 s⁻¹ | Kd [6]: 5.01 µM
